“Also recorded” adds a separate entry of the source.
Tests used:
[1] = system: Umbilical cord blood (UCB) CD34+ cells; assay: Expansion of UCB CD34+ cells cultured 14 days with SCACs, GAS6 or inhibitors; type: cell-based, human
Method: (§1) Umbilical cord blood (UCB) CD34+ cells were cultured in StemSpan™ SFEM (StemCell Technologies) in the presence of different SCACs for 14-days and net fold expansion of TNC, CD34+ cells CD34+CD45RA− cells, and EPCR^High was calculated based on respective population on day-0 (e.g. net TNC day 14/TNC day 0). Control STFL cultures consisted of the same complete media without small molecules. Unless indicated otherwise, all cultures were supplemented with Stem Cell Factor, Flt-3 and Thrombopoietin at 100 ng/ml. All cultures also contained 10 μg/mL low-density lipoprotein (LDL, Stem Ce, Technologies) and 1% penicillin-streptomycin (Gibco). […] The improvement in HSPC expansion provided by the SCACs is exemplified with X2A in FIGS. 2A-2D. […] Culture done with adult CD34+ mobilized peripheral blood stem cells (mPBSC, CAT #70060.2, Stem Cell Technologies) also contained IL-6 (100 ng/ml) as additional cytokine (FIG. 9).
To investigate the impact of AA2P and/or SCACs on expression of AXL and its activation level, HSPC were culture in STFL with or without AA2P or the indicated SCAC for 14 days (FIG. 4F). In some cultures, the AXL kinase inhibitor Bemcentinib or a neutralizing antibody was added to cultures at day 10, and the impact on HSPC expansion was investigated in indicated cultures at day 14. Proteins level were investigated by western blot analysis or intracellular flowcytometry analysis following common procedures with anti-AXL [Goat IgG anti-AXL (Cat #AF154) or anti-p-AXL (Cat #AF2228) or anti-GAS6 (rabbit IgG, Cat #67202S, Cell Signaling Tech.) and appropriate secondary antibodies, R&D systems). […] AXL is expressed by CD34+CD45RA− HSPCs cultured in both X2A and C6 culture (FIG. 5A). […] This support that, even in the absence of exogenous GAS6 , AA2P alone or in combination with other small molecule (i.e. stem cell agonist such as UM171, SR1 . . . ) is capable of driving enough increased endogenous expression of GAS6 and AXL to support the improved expansion of CD34+CD45RA− HSPCs through para-and/or autocrine activation of AXL on HSPCs.
(§2) In each case, GAS6 was added to the cultures from days 7 to 14.
Cell expansion measured after 14 days of culture in STFL culture (FIG. 7A) and in X2A cultures (FIG. 7B). Indeed, as shown therein, the rise in cell growth (TNC) and expansion of HSPC subsets (CD34+ cells, CD34+CD45RA−, EPCRHigh cells) induced by GAS6 can be accomplished by adding GAS6 in cultures at various time point, as early as day 0 and as late as day 10, preferably at day 7.

NSG mice = assay: Engraftment in NSG mice of X2A-expanded cells with GAS6 or GAS6 neutralizing antibody; type: in vivo
Method: Mice group were transplanted with the progeny of 750 expanded CD34+ cells after 14 days of culture. The groups were; […]-expanded cells, […]-expanded cells supplemented with GAS6 (10 ng/ml) or a GAS6 neutralizing antibody (GAS6 Ab) from day-10 to day-14. As shown therein, addition of GAS6 to CB HSPC expansion cultures improves the engraftment achieved from the ex vivo expanded HSPCs.

[2] = system: CD34+ mobilized peripheral blood stem cells (mPBSC); assay: Expansion of adult mobilized peripheral blood stem cell (mPBSC) cultures; type: cell-based, human; conditions: GAS6 10 ng/ml, day 7 to 14; STFL and SCAC cultures
Method: as §1, §2

Nc1nc(=O)n(-c2cccc(-c3ccccc3)c2)cc1Cl [Bobcat339, reference compound]
effect of TET inhibition on cell growth ([1]; 30 μM, day-10 to day-14): reduced cell growth

Nc1nc(Nc2ccc3c(c2)CC[C@@H](N2CCCC2)CC3)nn1-c1cc2c(nn1)-c1ccccc1CCC2 [Bemcentinib, reference compound]
effect of AXL kinase inhibition on ability of X2A and C6 to expand HSPCs ([1]; added at day 10, read at day 14, normalized to DMSO): reduction; also recorded: decreased

B1: GAS6: natural ligand of the AXL receptor, growth arrest-specific protein 6, added to cultures at 10 ng/mL (protein, UniProt Q14393 31-678, looked up)
Growth arrest-specific …: ALLPAREATQFLRPRQRRAFQVFEEAKQGHLERECVEELCSREEAREVFENDPETDYFYPRYLDCINKYGSPYTKNSGFATCVQNLPDQCTPNPCDRKGTQACQDLMGNFFCLCKAGWGGRLCDKDVNECSQENGGCLQICHNKPGSFHCSCHSGFELSSDGRTCQDIDECADSEACGEARCKNLPGSYSCLCDEGFAYSSQEKACRDVDECLQGRCEQVCVNSPGSYTCHCDGRGGLKLSQDMDTCEDILPCVPFSVAKSVKSLYLGRMFSGTPVIRLRFKRLQPTRLVAEFDFRTFDPEGILLFAGGHQDSTWIVLALRAGRLELQLRYNGVGRVTSSGPVINHGMWQTISVEELARNLVIKVNRDAVMKIAVAGDLFQPERGLYHLNLTVGGIPFHEKDLVQPINPRLDGCMRSWNWLNGEDTTIQETVKVNTRMQCFSVTERGSFYPGSGFAFYSLDYMRTPLDVGTESTWEVEVVAHIRPAADTGVLFALWAPDLRAVPLSVALVDYHSTKKLKKQLVVLAVEHTALALMEIKVCDGQEHVVTVSLRDGEATLEVDGTRGQSEVSAAQLQERLAVLERHLRSPVLTFAGGLPDVPVTSAPVTAFYRGCMTLEVNRRLLDLDEAAYKHSDITAHSCPPVEPAAA
levels of human platelets and human % CD45+ leucocytes (NSG mice; X2A cultures + GAS6 10 ng/ml, 3-weeks and 16-weeks post-transplant): significantly superior
long-term human BM engraftment (% CD45+) (NSG mice; X2A cultures, 18-weeks after transplantation): improved
distribution of human lineages downstream HSC (NSG mice; X2A+ GAS6 group, BM): normal distribution
proportion of CD34+ HSPC (NSG mice; X2A+ GAS6 mice, BM): significantly superior
human CFU (NSG mice; X2A+ GAS6 primary transplants): significantly superior
net number of human CD34+ BM cells (NSG mice; X2A+ GAS6 primary transplants): significantly superior
serial engraftment activity in secondary transplants (NSG mice; primary X2A+ GAS6 grafts vs X2A grafts, 12-weeks): superior serial engraftment activity
HSPC expansion with GAS6 in X2A, X2B, STFL or SM6 culture ([1]; FIGS. 5D-5F): improved HSPC expansion
expansion of TNC and HSPC subsets, valproic acid (VPA)-containing cultures ([1]; GAS6 10 ng/mL, days 7 to 14): improved
expansion of the CB HSPC population, GAS6 with single stem cell agonists or agonist cocktails ([1]; GAS6 10 ng/mL, days 7 to 14): strongly increases
expansion of HSPC subsets, control STFL cultures ([1]; GAS6 10 ng/ml, days 7 to 14): improved
expansion of TNC and HSPC subsets, AA2P-containing cultures ([1]; GAS6 10 ng/ml, days 7 to 14): improved
expansion of TNC and HSPC subsets, C6-containing cultures ([1]; GAS6 10 ng/ml, days 7 to 14): improved
expansion of TNC and HSPC subsets, SM6-containing cultures ([1]; GAS6 10 ng/ml, days 7 to 14): improved
expansion of TNC and HSPC subsets, SR1-containing cultures ([1]; GAS6 10 ng/ml, days 7 to 14): improved
expansion of TNC and HSPC subsets, UM171-containing cultures ([1]; GAS6 10 ng/ml, days 7 to 14): improved
expansion of TNC and HSPC subsets, X2A-containing cultures ([1]; GAS6 10 ng/ml, days 7 to 14): improved
expansion of CB TNC and HSPC subsets, GAS6 added at different time point ([1]; added day 0, 4, 7 or 10, STFL with or without X2A, day 14): superior expansion
HSPC expansion, exogenous GAS6 added to SCAC and C6 cultures ([1]; compared to SCACs and C6 alone, 10 ng/mL): further improved HSPC expansion
expansion of TNC and HSPC subsets in mPBSC cultures with GAS6 [2]: further increased

From US20240368549A1, “ENHANCEMENT OF HEMATOPOIETIC STEM CELL AND HEMATOPOIETIC PROGENITOR CELL EXPANSION WITH AGENTS THAT ACTIVATE TAM RECEPTORS” (CANADIAN BLOOD SERVICES, priority 2021, published 2024)
